Experimental data reported in the supplement of paper PMC7877785.
± gives the uncertainty stated by the source.

Experiment: self-splicing fitness, log relative to wild type (ln ratio); higher = more splicing; Tetrahymena group I intron in knt gene, E. coli kanamycin selection, DiMSum; sequences stand for … in CUCUCU…GGAGGGAAAAGUUAUCAGGCAUGCACCUGGUAGCUAGUCUUUAAACCAAUAGAUUGCAUCGGUUUAAAAGGCAAGACCGUCAAAUUGCGGGAAAGGGGUCAACAGCCGUUCAGUACCAAGUCUCAGGGGAAACUUUGAGAUGGCCUUGCAAAGGGUAUGGUAAUAAGCUGACGGACAUGGUCCUAACCACGCAGCCAAGUCCUAAGUCAACAGAUCUUCUGUUGAUAUGGAUGCAGUUCACAGACUAAAUGUCGGUCGGGGAAGAUGUAUUCUUCUCAUAAGAUAUAGUCGGACCUCUCCUUAAUGGGAGCUAGCGGAUGAAGUGAUGCAACACUGGAGCCGCUGGGAACUAAUUUGUAUGCGAAAGUAUAUUGAUUAGUUUUGGAGUACUCGUGGUCG
How it was run: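 A randomised library covering all eight P1ex-region intron nucleotides was built with the intron in the knt kanamycin-resistance gene on pET-22b(+) and held in E. coli BL21(DE3). Cells were grown overnight at 37°C or 30°C on LB agar, with or without 25 μg/mL kanamycin, plus 100 μg/mL carbenicillin, 50 μM IPTG and 0.2% rhamnose, and pooled colonies were amplicon-sequenced on an Illumina HiSeq 2500. DiMSum fitness is the error-weighted combination of wild-type-normalised replicate fold changes, kanamycin versus none.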

| Sequence | self-splicing fitness (ln) (30 °C) | self-splicing fitness (ln) (37 °C) |
| --- | --- | --- |
| GAUAAGCAAUAUUACGUAAG | -2.38 ± 0.088 | -0.896 ± 0.11 |
| GAUAAGCAAUAUUACGUCCC | -0.291 ± 0.2 | -0.349 ± 0.25 |
| GAUAAGCAAUAUUACGUCGC | -1.76 ± 0.22 | -1.17 ± 0.27 |
| GAUAAGCAAUAUUACGUGGC | -3.32 ± 0.21 | -2.24 ± 0.27 |
| GAUAAGCAAUAUUACGUGUG | -1.96 ± 0.079 | -0.282 ± 0.094 |
| GAUAAGCAAUAUUACGUUGG | -3.89 ± 0.21 | -2.87 ± 0.25 |
| GAUCAGCAAUAUUACGAACC | -0.755 ± 0.19 | -1.48 ± 0.28 |
| GAUCAGCAAUAUUACGAGCG | -1.37 ± 0.08 | -0.0351 ± 0.097 |
| GAUCAGCAAUAUUACGAUCA | -0.53 ± 0.13 | -0.636 ± 0.097 |
| GAUCAGCAAUAUUACGCCUA | 0.00222 ± 0.13 | 0.0251 ± 0.12 |
| GAUCAGCAAUAUUACGCGGU | -2.98 ± 0.16 | -1.85 ± 0.24 |
| GAUCAGCAAUAUUACGCGUC | -2.9 ± 0.18 | -3.33 ± 0.4 |
| GAUCAGCAAUAUUACGGACA | -0.118 ± 0.089 | 0.127 ± 0.11 |
| GAUCAGCAAUAUUACGGAGC | -1.86 ± 0.094 | -0.552 ± 0.099 |
| GAUCAGCAAUAUUACGGAUA | -0.42 ± 0.067 | 0.0803 ± 0.077 |
| GAUCAGCAAUAUUACGGGAG | -1.64 ± 0.068 | -0.581 ± 0.086 |
| GAUCAGCAAUAUUACGGGAU | -3.01 ± 0.12 | -1.18 ± 0.11 |
| GAUCAGCAAUAUUACGGGCG | -0.25 ± 0.095 | -0.511 ± 0.13 |
| GAUCAGCAAUAUUACGUAAA | -0.582 ± 0.079 | 0.169 ± 0.099 |
| GAUCAGCAAUAUUACGUCGG | -4.18 ± 0.3 | -2.39 ± 0.2 |
| GAUCAGCAAUAUUACGUCGU | -0.403 ± 0.079 | -0.669 ± 0.1 |
| GAUCAGCAAUAUUACGUCUA | -0.327 ± 0.071 | 0.145 ± 0.086 |
| GAUCAGCAAUAUUACGUUAU | -1.46 ± 0.07 | -0.207 ± 0.092 |
| GAUCAGCAAUAUUACGUUCG | -1.33 ± 0.063 | 0.136 ± 0.073 |
| GAUGAGCAAUAUUACGAAGA | -3.25 ± 0.17 | -0.937 ± 0.14 |

| Sequence | self-splicing fitness (ln) (30 °C) | self-splicing fitness (ln) (37 °C) |
| --- | --- | --- |
| GAUGAGCAAUAUUACGAAGU | -2.87 ± 0.22 | -2.84 ± 0.28 |
| GAUGAGCAAUAUUACGACCC | -0.245 ± 0.34 | -0.0127 ± 0.3 |
| GAUGAGCAAUAUUACGACCU | -1.4 ± 0.18 | -1.36 ± 0.16 |
| GAUGAGCAAUAUUACGAGAG |  | -3.01 ± 0.29 |
| GAUGAGCAAUAUUACGAUGA | -2.24 ± 0.2 | -2.79 ± 0.27 |
| GAUGAGCAAUAUUACGCAAG | -2.46 ± 0.38 | -1.51 ± 0.36 |
| GAUGAGCAAUAUUACGCCCA | -1.17 ± 0.23 | 0.487 ± 0.28 |
| GAUGAGCAAUAUUACGCCGU |  | -2.33 ± 0.46 |
| GAUGAGCAAUAUUACGCCUC | -2.56 ± 0.36 | -1.01 ± 0.38 |
| GAUGAGCAAUAUUACGCGAC | -1.69 ± 0.17 | -0.921 ± 0.15 |
| GAUGAGCAAUAUUACGUCAG | -3.78 ± 0.32 | -2.31 ± 0.26 |
| GAUGAGCAAUAUUACGUCUA | -1.51 ± 0.31 | -1.2 ± 0.25 |
| GAUGAGCAAUAUUACGUGAA | -3.72 ± 0.22 | -1.91 ± 0.2 |
| GAUGAGCAAUAUUACGUGAC | -3.05 ± 0.34 | -2.3 ± 0.42 |
| GAUGAGCAAUAUUACGUGGU | -3.36 ± 0.37 |  |
| GAUGAGCAAUAUUACGUUCU | -2.89 ± 0.16 | -1.32 ± 0.12 |
| GAUUAGCAAUAUUACGAAGU | -2.54 ± 0.16 | -0.783 ± 0.12 |
| GAUUAGCAAUAUUACGACCA | -0.409 ± 0.23 | -0.295 ± 0.34 |
| GAUUAGCAAUAUUACGACGG |  | -2.39 ± 0.33 |
| GAUUAGCAAUAUUACGACGU | -0.442 ± 0.063 | 0.93 ± 0.089 |
| GAUUAGCAAUAUUACGAGAA |  | -1.51 ± 0.3 |
| GAUUAGCAAUAUUACGAGUG | -1.25 ± 0.094 | -0.616 ± 0.1 |
| GAUUAGCAAUAUUACGAUGC | -0.852 ± 0.083 | -0.525 ± 0.095 |
| GAUUAGCAAUAUUACGAUGG | -3.28 ± 0.15 | -1.17 ± 0.12 |
| GAUUAGCAAUAUUACGAUUG | -1.71 ± 0.13 | -0.919 ± 0.18 |

| Sequence | self-splicing fitness (ln) (30 °C) | self-splicing fitness (ln) (37 °C) |
| --- | --- | --- |
| GAUUAGCAAUAUUACGCAAU | -2.41 ± 0.33 | -1.9 ± 0.36 |
| GAUUAGCAAUAUUACGCACG | -1.36 ± 0.12 | -1.14 ± 0.14 |
| GAUUAGCAAUAUUACGCAGG |  | -0.28 ± 0.27 |
| GAUUAGCAAUAUUACGCCAU |  | -1.97 ± 0.47 |
| GAUUAGCAAUAUUACGCCCG | 0.359 ± 0.24 |  |
| GAUUAGCAAUAUUACGCUCA | -0.572 ± 0.12 | -0.182 ± 0.17 |
| GAUUAGCAAUAUUACGCUUA | -1.22 ± 0.13 | -0.752 ± 0.095 |
| GAUUAGCAAUAUUACGGACU | -0.413 ± 0.086 | -0.223 ± 0.1 |
| GAUUAGCAAUAUUACGGCAC | -0.128 ± 0.13 | -0.42 ± 0.12 |
| GAUUAGCAAUAUUACGGGAC | -2.53 ± 0.18 | -1.53 ± 0.14 |
| GAUUAGCAAUAUUACGGGCC | -1.66 ± 0.32 | -2.01 ± 0.47 |
| GAUUAGCAAUAUUACGUAAA | -2.19 ± 0.15 | -0.793 ± 0.19 |
| GAUUAGCAAUAUUACGUAAG | -2.02 ± 0.18 | -0.715 ± 0.29 |
| GAUUAGCAAUAUUACGUCGA | -1.83 ± 0.12 | -0.819 ± 0.11 |
| GAUUAGCAAUAUUACGUGCG | -2.8 ± 0.16 | 0.0923 ± 0.12 |
| GAUUAGCAAUAUUACGUGCU | -2.46 ± 0.18 | -1.26 ± 0.14 |
| GCAAAGCAAUAUUACGAUAU | -1.41 ± 0.075 | 0.42 ± 0.082 |
| GCAAAGCAAUAUUACGAUUU | -0.938 ± 0.06 | -0.449 ± 0.082 |
| GCAAAGCAAUAUUACGCAAG | -3.95 ± 0.19 | -2.22 ± 0.14 |
| GCAAAGCAAUAUUACGCACC | -1.15 ± 0.17 | -1.45 ± 0.16 |
| GCAAAGCAAUAUUACGCCGA | -2.04 ± 0.31 | -1.82 ± 0.21 |
| GCAAAGCAAUAUUACGCGCU | -3.48 ± 0.23 | -2.01 ± 0.18 |
| GCAAAGCAAUAUUACGCGGA | -3.48 ± 0.27 | -1.94 ± 0.17 |
| GCAAAGCAAUAUUACGCGGU | -4.16 ± 0.22 | -2.67 ± 0.24 |
| GCAAAGCAAUAUUACGCUAA | -2.19 ± 0.14 | -1.29 ± 0.12 |

| Sequence | self-splicing fitness (ln) (30 °C) | self-splicing fitness (ln) (37 °C) |
| --- | --- | --- |
| GCAAAGCAAUAUUACGCUGA | -2.59 ± 0.12 | -2.04 ± 0.11 |
| GCAAAGCAAUAUUACGGACG | -1.4 ± 0.091 | 0.261 ± 0.14 |
| GCAAAGCAAUAUUACGGCAA | -0.673 ± 0.094 | -0.722 ± 0.091 |
| GCAAAGCAAUAUUACGGCAC | -0.648 ± 0.081 | -0.426 ± 0.09 |
| GCAAAGCAAUAUUACGGCAG | -3.61 ± 0.22 | -2.81 ± 0.31 |
| GCAAAGCAAUAUUACGGCCA | -2.11 ± 0.24 | -0.962 ± 0.19 |
| GCAAAGCAAUAUUACGGUAG | -2.68 ± 0.14 | -3.34 ± 0.23 |
| GCAAAGCAAUAUUACGUAAA | -0.824 ± 0.062 | -0.5 ± 0.085 |
| GCAAAGCAAUAUUACGUAAG | -1.92 ± 0.1 | -0.569 ± 0.11 |
| GCAAAGCAAUAUUACGUCCU | -0.435 ± 0.1 | 0.035 ± 0.12 |
| GCAAAGCAAUAUUACGUCUC | -1.02 ± 0.11 | -0.501 ± 0.12 |
| GCAAAGCAAUAUUACGUGGU | -3.38 ± 0.15 | -2.59 ± 0.15 |
| GCAAAGCAAUAUUACGUUCA | -0.597 ± 0.064 | -0.534 ± 0.077 |
| GCACAGCAAUAUUACGAAGC | -2.52 ± 0.23 | -0.749 ± 0.15 |
| GCACAGCAAUAUUACGAGAC | -2.51 ± 0.17 | -2.06 ± 0.18 |
| GCACAGCAAUAUUACGAGUA | -1.31 ± 0.084 | -0.881 ± 0.088 |
| GCACAGCAAUAUUACGAUAA | -1.31 ± 0.07 | -0.957 ± 0.096 |
| GCACAGCAAUAUUACGAUCC | -0.381 ± 0.11 | -0.0747 ± 0.16 |
| GCACAGCAAUAUUACGCAUG | -2.95 ± 0.19 | -0.809 ± 0.12 |
| GCACAGCAAUAUUACGCCGG | -1.25 ± 0.1 | -0.896 ± 0.16 |
| GCACAGCAAUAUUACGCGUA | -0.987 ± 0.094 | -0.173 ± 0.086 |
| GCACAGCAAUAUUACGCUAA | -1.6 ± 0.092 | -0.281 ± 0.089 |
